{
  "source": "patent KR20240034954A",
  "about": "(dated 2024)",
  "binders": {"B1": {"name": "항-vSIRPα 단일클론 항체 (SIRPα 변이체 특이적인 단일클론 항체) (antibody, V domains shown)", "VH": "EVQLQQSGPELVKPGASVKISCKASGYSFTGYYMHWVKQSHVKSLEWIGRINPYNGATNYNQNFKDKASLTLDKSSSTAYVELHSLTSEDSAVYYCTRNDGYYWYFDVWGAGTTVTVSS", "VL": "not shown", "notes": "Two clones were selected; also called 제작된 2종 항체; 개발한 항체 2종"}},
  "key": {"야생형의 SIRPα": {"target": "T1, 야생형의 SIRPα (Homo sapiens (Human), UniProt P78324 31-149, limits assumed)", "T1 construct": "also called wtSIRPα; wild-type SIRPα", "assay": "western blot"}, "[1]": {"target": "T2, 서열번호 2의 아미노산 서열을 포함하는 SIRPα 변이체 (Homo sapiens (Human), UniProt P78324 31-149)", "T2 construct": "Engineered SIRPα variant; also called vSIRPα; vSIRPα antigen", "T2 chain": "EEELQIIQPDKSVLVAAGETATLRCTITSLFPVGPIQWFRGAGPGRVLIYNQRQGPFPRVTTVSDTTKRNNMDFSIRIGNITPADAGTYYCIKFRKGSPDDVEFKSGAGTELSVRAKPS", "assay": "indirect ELISA, vSIRPα (SEQ ID NO 2) coated at 1.0 ug/ml, anti-mouse IgG Fcγ-peroxidase secondary"}},
  "data": [
    {"binder": "B1", "values": [
      {"measurement": "binding result", "setting": "야생형의 SIRPα", "value": "no binding"},
      {"measurement": "binding result", "setting": "[1]", "value": "binds"}
    ]}
  ]
}
